{"source": "patent US20080020377A1", "key": {"[1]": {"target": "Tet repressor protein from class B [TetR(B)] (Escherichia coli) (UniProt P04483)", "assay": "cell-based or functional assay"}, "[2]": {"target": "TetR(B/D)188-208 (UniProt P0ACT4)", "assay": "cell-based or functional assay"}}, "data": [{"substance": "PepBs1-TrxA (N-terminal fusion of pepBs1 to Escherichia coli thioredoxin A) (from UniProt P0AA25 2-109)", "values": [{"measurement": "factor of induction of β-galactosidase activity at 60 µM IPTG", "setting": "[1]", "result": 40, "unit": "fold"}, {"measurement": "induction of β-galactosidase activity against the C-terminal fusion TrxA-pepBs1 (fold higher than the C-terminal fusion)", "setting": "[1]", "result": 3}]}, {"substance": "SbmC(C)-pepBs1 fusion protein (from UniProt P33012 1-157)", "values": [{"measurement": "β-galactosidase activity at 60 µM IPTG", "setting": "[2]", "result": 4, "unit": "fold"}]}, {"substance": "TrxA-pepBs1 (C-terminal fusion of pepBs1 to Escherichia coli thioredoxin A) (from UniProt P0AA25 2-109)", "values": [{"measurement": "factor of induction of β-galactosidase activity at 60 µM IPTG", "setting": "[1]", "result": 14, "unit": "fold"}]}]}
